For data set [1], the target named is T1, RNase T E92G (Escherichia coli, UniProt P30014 1-215, E92G).
T1 sequence: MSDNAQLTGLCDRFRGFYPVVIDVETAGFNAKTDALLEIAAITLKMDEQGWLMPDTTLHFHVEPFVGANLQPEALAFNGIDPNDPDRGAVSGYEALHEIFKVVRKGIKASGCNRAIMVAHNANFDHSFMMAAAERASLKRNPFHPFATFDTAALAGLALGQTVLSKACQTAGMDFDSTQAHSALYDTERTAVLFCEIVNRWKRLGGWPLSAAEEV
The data set can be described thus: X-ray crystallography.

The data set “crystal structure” deals with the molecule itself. The data set can be described thus: crystal structure.
Data set [2] concerns the target T2, RNase T (Escherichia coli, UniProt P30014 1-215).
T2 sequence: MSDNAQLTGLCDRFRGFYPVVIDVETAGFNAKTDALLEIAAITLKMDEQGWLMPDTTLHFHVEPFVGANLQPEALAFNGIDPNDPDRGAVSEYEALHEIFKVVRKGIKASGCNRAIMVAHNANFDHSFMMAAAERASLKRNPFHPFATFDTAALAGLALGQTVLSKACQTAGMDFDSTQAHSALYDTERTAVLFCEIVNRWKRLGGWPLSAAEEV
The data set is described as follows: X-ray crystallography.

Data set [3] concerns the target T2, RNase T. The data set can be described thus: X-ray crystallography. The source holds these as a separate data set.
The target in data set [4] is T1, RNase T E92G. The data set can be described thus: X-ray crystallography. This is another data set of the same source.

The source of these data is publication PMC3439924 (Nucleic Acids Research, 2012).

Where two headings read alike, the source gives them in different places.

On to GCTTA (ssDNA) [ssDNA 3'-end TTA], for which, in the data set with RNase T E92G [1], the binding result was “binds”.

Turning to TTACAAT (ssDNA) [ssDNA 3'-end AAT], the binding result with RNase T E92G [1] is on record as “binds”.

B1: RNase T E92G mutant (E. coli) (enzyme, UniProt P30014 1-215, looked up)
chain: MSDNAQLTGLCDRFRGFYPVVIDVETAGFNAKTDALLEIAAITLKMDEQGWLMPDTTLHFHVEPFVGANLQPEALAFNGIDPNDPDRGAVSGYEALHEIFKVVRKGIKASGCNRAIMVAHNANFDHSFMMAAAERASLKRNPFHPFATFDTAALAGLALGQTVLSKACQTAGMDFDSTQAHSALYDTERTAVLFCEIVNRWKRLGGWPLSAAEEV
For the molecule B1, the binding result in “crystal structure” is given as “binds”.

B2: RNase T (wild-type, E. coli) (enzyme, UniProt P30014 1-215, looked up)
chain: MSDNAQLTGLCDRFRGFYPVVIDVETAGFNAKTDALLEIAAITLKMDEQGWLMPDTTLHFHVEPFVGANLQPEALAFNGIDPNDPDRGAVSEYEALHEIFKVVRKGIKASGCNRAIMVAHNANFDHSFMMAAAERASLKRNPFHPFATFDTAALAGLALGQTVLSKACQTAGMDFDSTQAHSALYDTERTAVLFCEIVNRWKRLGGWPLSAAEEV
Turning to B2, the binding result in “crystal structure” is given as “binds”.

TTACACC (ssDNA) [ssDNA 3'-end ACC]: the binding result in the data set with RNase T [2] is recorded as “binds”.

Turning to TTATAAA (ssDNA) [ssDNA 3'-end AAA], in the data set with RNase T [3], the binding result is given as “binds”.

As for TTACAAC (ssDNA) [ssDNA 3'-end AAC], the binding result with RNase T [2] is recorded as “binds”.

GGCCCTCTTTAGGGCCTT (structured_DNA) [stem-loop DNA, 2-nt 3'-overhang]: the binding result with RNase T E92G [4] is “binds”.
